# Measured values from the RNAGym collection of RNA variant scans (doi:10.1073/pnas.2313332121).
# Variants at the floor of the assay were thinned out.
# B1: TPR 5TU (parent)
# chain: GGAUCUUCUCGAUCUAACAAAAAAGACAAAUCUGCCACAAAGCUUGAGAGCAUCUUCGGAUGCAGAGGCGGCAGCCUUCGGUGGCGCGAUAGCGCCAACGUUCUCAACUAUGACACGCAAAACGCGUGCUCCGUUGAAUGGAGUUUAUCAUG
# Variants of: B1
# Assay: polymerase ribozyme fitness, log enrichment relative to wild type (log ratio); higher = more active; in vitro selection for triplet polymerase activity
# How it was run: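 Mutant libraries were PCR-built and transcribed for each subunit of a heterodimeric triplet polymerase ribozyme and selected for one round in triplicate at −7 °C, frozen, before gel excision of extended constructs and streptavidin-bead capture. Input and output libraries were Illumina-sequenced, keeping genotypes with ≥10 input reads and ≥1 read per output. Fitness is a logarithmic ratio of genotype to wild-type enrichment, in base 2, using inverse-variance-weighted replicate averages.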
row,Variant,polymerase ribozyme fitness (log ratio)
1,GGAUCUUCUCGAUCUAACAAAAAAGAGAAAUCUGCCACAAAGCUUGAGAGCAUCUUCGGAUGCAGAGGCGGCAGCCUUCGGUGGCGCGAUAGCGACAACGUUCUCAACUAUGACACGCAAAACGCGUGCUCCGUUGAAUGCAGUUUAUCAUG,-3.77
2,GGAUCUUCUCGAUCUAACAAAAAAGAGAAAUCUGCCACAAAGCUUGAGAGUAUCUUCGGAUGCAGAGGCGGCAGCCUUCGGUGGCGCGAUAGCGCCAACGUUCUCAACUAUGACACGCAAAACGCGUGCUCCGUUGAAUGGAGUUUAUCAUG,-3.97
3,GGAUCUUCUCGAUCUAACAAAAAAGAGAAAUCUGCCACAAAGCUUGAGAGCAUCUUCGGAUGCAGAGGCGGUAGCCUUCGGUUGCGCGAUUGUGCCAACGUUCUCAACUAUGACACGCAAAACGCGUGCUCCGUUGAAUGGAGUUUAUCAUG,≤ -4.2
4,GGAUCUUCUCGAUCUAACAAAAAAGAGAAAUCUGCCACAAAGCUUGAGAGCAUCUUCAGAUGCAGAGGCGGCAGCCUUCGGUGGCGCGAUAGAGGCAACGUUCUCAACUAUGACACGCAAAACGCGUGCUCCGUUGAAUGGAGUUUAUCAUG,≤ -4.2
5,GGAUCUUCUCGAUCUAACAAAAAAGAGAAAUCUGCCACACAGCUUGAAAGCAUCUUCGGAUGAAGAGGCUGCAGCCUUCGAUGGCGCGAUAACGCCAACGUUCUCAACUAUGACACGCAAAACGCGUGCUCCGUUGAAUGGAGUUUAUCAUG,≤ -4.2
6,GGAUCUUCUCGAUCUAACAAAAAAGAGAAAUCUGCCACUAAGCUUGAGAGCAUCUUCGGAUGCAGAGGCGGCAACCUUCGGUGGCGGGAUAGCGCCAACGUGCUCAACUAUGACACGCAAAACGCGUGCUCCGUUGAAUGGAGUUUAUCAUG,≤ -4.2
7,GGAUCUUCUCGAUCUAACAAAAAAGAGAAAUCUGCCACAAAGCUUGAGAGUAUCUUCGGAUGCAGAGGCGGCAGCCUUCCGUGGCUCGAUAGCGCCAACGUUCUCAACUAUGACACGCAAAACGCGUGCUCCGUUGAAUGGAGUUUAUCAUG,≤ -4.2
8,GGAUCUUCUCGAUCUAACAAAAAAGAGAAAUCUGCCACAAAGCUUGAGAGCAUCUUCGGAUGCAGAGGCGGCAGCCUUCGGUGGCGGGAUAGCGCCAACGUUCUCAACUAUGACACGCAAAACGCGUGCUCCCUUGAAUGGAGUUUAUCAUG,≤ -4.2
9,GGAUCUUCUCGAUCUAACAAAAAAGAGAAAUCUGCCACAAAGCUUGAGAGCAUCUUCGGAUGCAGAGGCGGCAGCCUUCGGUGGCGCGAUAGCGCCAACGUUCUCAACUAUGACACGCAAAACGAGUGCUCCGUUGAAUGGAGUUUAUCAUG,-3.93
10,GGAUCUUCUCGAUCUAACAAAAAAGAGAAAUCUGCCACAAAGCUUGAGAGCAUAUUCGGAUGCAGAGGCGGCAGCCUUCGGUGGCGCGAUAGAGCCAACGUUCUCAACUAUGACUCGCAAAACGCGUGCUCCGUUGAAUGGAGUUUAUCAUG,≤ -4.2
11,GGAUCUUCUCGAUCUAACAAAAAAGAGAAAUCUGCCACAAAGCUUGAGAGCAUCUUCGGAUGCAGGGGCGGCAGCCUUCGGUGGCGUGAUAGCGCCAACGUUCUCAACAAUGUCACGCAAAACGCGUGCUCCGUUGAAUGGAGUUUAUCAUG,≤ -4.2
12,GGAUCUUCUCGAUCUAACAAAAAAGAGAAAUCUGCCACAAAGCUUGAGAGCAUUUUCGGAUGCAGAGGCGGCAGCGUUCGGUGGCGCGAUAGCGCCAACGUUCUCAACUAUGACACGCAAAACGCGUGCUCCGUUGAAUGGAGGUUAUCAUG,≤ -4.2
13,GGAUCUUCUCGAUCUAACAAAAAAGAGAAAUCUGCCACAAAGCUUGAGAACAUCUUCGGAUGCAGAGGCGGCAGCCUUCGGUGGCGCGAUAGCGCCAACGUUCUCAACUAUGACACGCAAAACGCGUGCUCCGUUGAAUGGAGUUUAUCAUG,-3.72
14,GGAUCUUCUCGAUCUAACAAAAAAGAGAAAUCUGCCACAAAGCUUGAGAGCAUCUUCGGAUGCAGAGGCGGCAGCCUUCGGUGGCGAGAUAGCGCCAACGUUCUCAACUAUGACACGCAAAACGCGUGCUCCGUUGAAUGGAGUUUAUCAUG,≤ -4.2
15,GGAUCUUCUCGAUCUAACAAAAAAGAGAAAUCUGCCACAAAGCUUGAGAGCAUCUUCGGAUGCAGAGGCGGCAGCCUUCGGUGGCGUGAUAGCGCCAACGUUCUCAACUAUGACACGCAAAACGCGUGCUCCGUUGAAUGGAGUUUAUCAUG,-3.97
16,GGAUCUUCUCGAUCUAACAAAAAAGAGAAAUCUGCCACAAAGCUUGAGAGCAUCUUCGGAUGCAGAGGCGGCAGCCUUCGGUGGCGCGAUAGUGCCAACGUUCUCAACUAUGACACGCAAAACGCGUGCGCCGUUGAAUGGAGUUUAUCAAG,≤ -4.2
17,GGAUCUUCUCGAUCUAACAAAAAAGAGAAAUCUGCCUCACAGCUUGAGAGCAUCUUCGGAUGCGGAGGCGGCAGCCUUCGAUGGCGCGAUAGCGGCAACGUUCUCAACUAUGACACGCAAAACGCGUGCUCCGUUGACUGGAGUUUAUCAUG,-3.88
18,GGAUCUUCUCGAUCUAACAAAAAAGAGAAAUCUGCCACAAAGUUUGAGAGCAUCUUCGGAUGCAGAGGCGGCAGGCUGCGGUGGCGCGAUAGCGCCAACGUUCUCAACUAUGACACGCAAAACGCGUGGUCCGUUGAAUGGAAUUUAUCAUG,≤ -4.2
19,GGAUCUUCUCGAUCUAACAAAAAAGAGAAAUCUGCCACAAAGCUUGAGAGCGUCUUCGGAUGCAGAGGCGGCAGCCUUCGGUGGCGCGAUAACGCCAACGUUCUCAACUAUGACACGCAAAACGCGUGCUCCGUUGAAUGGAGUUUAUCAUG,≤ -4.2

row,Variant,polymerase ribozyme fitness (log ratio)
1,GGAUCUUCUCGAUCUAACAAAAAAGAGAAAUCUGCCACAAAGCUUGAGAGCAUCUUCGGAUGCAAAGGCGGCAGCCUUCGGUGGCGCGAUAGCGCCAACGUUCUCAACUAUGACACGCAAAACGCGUGCUCCGUUGAAUGGAGUUUAUCAUG,≤ -4.2
2,GGAUCUUCUCGAUCUAACAAAAAAGAGAAAUCUGGCACAAAGCUUGAGCGCAUCUUCGGAUGCAGAGGCCGCAGCCUUAGGUGGCGCGAUAGCGGCAACGUUCUCAACUAUGACACGCAAAACGCGUGCUCCGUUGAAUGGAGUUUAUCAUG,≤ -4.2
3,GGAUCUUCUCGAUCUAACAAAAAAGAGAAAUCUGCUACAAAGCUUGAGAUCAUCUUCGGAUGCAGAGGCGGCUGCCUUCGGAGGCGCGAUAGCGUCAACGUUCUCAACUAUGACACGCAAAACGCGUGCUCCGUUGAAUGGAGUUUAUCAUG,≤ -4.2
4,GGAUCUUCUCGAUCUAACAAAAAAGAGAAAUCUGCCACAAAGCUUGAGCUCAUUUUCGGAUGCAGAGGCGGCAGCCUUCGGUGGCGGGAUAGCGCCAACGUUCUCAACUAUGACACGCAAAACGCGUGCUCCGUUGAAUGGAGUUUAUCAUG,≤ -4.2
5,GGAUCUUCUCGAUCUAACAAAAAAGAGAAAUCUGCCAUAAAGCUUGAGCGCAUCUUCGGAUGCACAGGCGGCAGCCUUCGGUGGCGGGAUAGCGCCAACGUUCUCAACUAUGAAACGCGAAACGCGUGCUCCGUUGAAUGGAGUAUAUCAUG,-4.07
6,GGAUCUUCUCGAUCUAACAAAAAAGAGAAAUCUGCCACAUAGCUUGAGAGCAUCUUCAGAUGCAGAGGCGGCCGCUUUCGGUGGCGCGAUAGCGGCAACGUUCUCAACUAUGACACGCAAAACGCGUGCUCCGUUGAAUGGAGUUUAUCAUG,≤ -4.2
7,GGAUCUUCUCGAUCUAACAAAAAAGAGAAAUCUGCCACAAAGCUUGAGAGCAUCUUCGGAUGCAGAGGCGGCAGCAUUCGGUGGCGCGAUAGGGCCAACGUUCUCAACUAUGACACGCAAAACGCGUGCUCCGUUGAAUGGAGUUUAUCAUG,≤ -4.2
8,GGAUCUUCUCGAUCUAACAAAAAAGAGAAAUCUGCCACAACGCUUGAGAGCAUGUUCGGAUGCAGAGGCGGCAGCCUUCGGUGGCGGGAUAGCGCCAACGUUCUCAACUAUGAGACGCAAAACGAGUGCUCCGUUGAAUGGAGUUUAUCAUG,≤ -4.2
9,GGAUCUUCUCGAUCUAACAAAAAAGAGAAAUUUGCUACAAAGCUUGAGAGCAUCUUCGGAUGCAGAGGCGGCAGCCUUCGGUGGCGCAAUAGCGCCAAUGUUCUCAACUAUGACACGCAAAACGCGUGCUCCGUUGAAUGUAGUUUAUCAUC,-4.05
10,GGAUCUUCUCGAUCUAACAAAAAAGAGAAAUCUGCCACAAAGCUUGACAGCAUCUUCGGAUGCAGAGGCGGCAGCCUUCAAUGGCGCGAUAGCGCCAACGUUCUCAACUAUGGCACGAAAAACGCGUGCUCUGUUCAAUGGAGUUUAUCGUG,≤ -4.2
11,GGAUCUUCUCGAUCUAACAAAAAAGAGAAAUCUGCCAAAAAGCUUGAGAGCAUUUUCGGAUGCAGAGGCGGCAGCCUUCGGUGGCGCGAUAUCGCCAACGUUCUCAACUAUGACACGCAAAACGCGUGCUCCGGUGAAUGGAGUUUAUCAUG,≤ -4.2
12,GGAUCUUCUCGAUCUAACAAAAAAGAGAAAUCUGCCACAAAGCUUGAGAGCAUCUUCGGAUGCAGAGGCGGAAGCCUUCGGUGGCGCGAUAGCGCAAACGUUCUCAUCUAUGACACGCAAAACGCGUGCUCCGUUGAAUGGAGUUUAUCAUG,≤ -4.2
13,GGAUCUUCUCGAUCUAACAAAAAAGAGAAAUCUGCCACAAAGCUUGAGAGCAUCUUCGGAUGCAGAGGCGGCAGCCUUCGGUGGCGCGAUAGCGCCAACGUUCUCAACUAUGACACGCAAAACGCGUGCUCCGUUGAAUGGAGUUUCUCAUG,-4.05
14,GGAUCUUCUCGAUCUAACAAAAAAGAGAAAUCUGCCACAAAGCUUGAGAGCAUCUUCGGAUGCAGAGGCGGCAGCCUUCGGUGGCGCGAUAGCGCCAACGUUCUCUACUAUGACACGCAAAACGCGUGCUCCGUUGAAUGGAGUUUAUCAUG,-3.92
15,GGAUCUUCUCGAUCUAACAAAAAAGAGAAAUCUGCCACAAAGCUUGAGAGCAUCUUCGGAUGAAGAGGCGGCAGCCUUCGGUGGUGAGAUAGCGCCAACGUUCUCAACUAUGACACGCAAAACGCGUGCUCCGUUAACUGGAGUUUAUCAUG,≤ -4.2
16,GGAUCUUCUCGAUCUAACAAAAAAGAGAAAUCUGCCACAAAGCUUGAGAGCAUCUUCGGAUGCAGAGGCGGCAGCCUUCGGUGGCGCGAUAGCGCUAACGUUCUCGACUAUGACACGCAAAACGCGUGCUCCGUUGAAUGGAGUUUAUCAUG,-4
17,GGAUCUUCUCGAUCUAACAAAAAAGAGAAAUCUGCCACAAAGCUUGAGAGCAUCUUCGGAUGCAGAGGCGGCAGCCUUCGGUGGCGCGAUAGUGCCAACGUUCUCAACUAUGACACGCAAAACGCGUGCUCCGUUGAAUGCAGUUUAUCAUG,-3.68
18,GGAUCUUCUCGAUCUAACAAAAAAGAGAAAUCUGCCACCAAGCUUGAGAGCAUCUUCGCAUGCAGAGGCGGCAGCCUUCGGUGGGGCGAUAGCGCCAACGUUCUGAACUAUGACACGCAAAACGCGUGCUCCGUUGAAUGGAGUUUAUCAUG,≤ -4.2
19,GGAUCUUCUCGAUCUAACAAAAAAGAGAAAUCUGCCAUGAAGCUUGAGAGCAUCUUCGGAUGCAGAGGCGGCCGCCUUCGGUGGCGCGAUAGCUCCAACGUUCUCAACUAUGACACGCAAAACGCGUGCUCCGUUGAAUGGAGUUCAUCAUU,≤ -4.2
